How the values were obtained:
Experiment in all cases: two-hybrid library CCmax;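 also: natural log of median RNA to DNA barcode read ratio; higher means stronger binding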
4H2466-AA = target: T1, 4H2466-AA; details: mean of both orientations
T1 chain: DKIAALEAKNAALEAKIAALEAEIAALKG

4H_APH = target: T2, 4H_APH
T2 chain: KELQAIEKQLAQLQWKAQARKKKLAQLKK

4H2592-AA = target: T3, 4H2592-AA; details: mean of both orientations
T3 chain: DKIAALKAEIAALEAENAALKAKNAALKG

4H2124-AA = target: T4, 4H2124-AA; details: mean of both orientations
T4 chain: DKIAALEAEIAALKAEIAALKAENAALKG

4H2931-AA = target: T5, 4H2931-AA; details: mean of both orientations
T5 chain: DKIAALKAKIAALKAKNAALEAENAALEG

4H249-AA = target: T6, 4H249-AA; details: mean of both orientations
T6 chain: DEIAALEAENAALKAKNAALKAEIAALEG

4H2512-AA = target: T7, 4H2512-AA
T7 chain: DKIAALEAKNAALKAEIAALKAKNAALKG

4H2165-AA = target: T8, 4H2165-AA; details: mean of both orientations
T8 chain: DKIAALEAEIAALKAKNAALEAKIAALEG

4H2774-AA = target: T9, 4H2774-AA; details: mean of both orientations
T9 chain: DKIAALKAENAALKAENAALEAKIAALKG

GCN2_T = target: GCN2_T
4H2343-AA = target: T10, 4H2343-AA; details: mean of both orientations
T10 chain: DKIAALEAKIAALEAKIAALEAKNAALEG

4H_BCR = target: T11, 4H_BCR; details: mean of both orientations
T11 chain: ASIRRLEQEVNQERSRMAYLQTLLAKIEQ

4H3015-AA = target: T12, 4H3015-AA; details: mean of both orientations
T12 chain: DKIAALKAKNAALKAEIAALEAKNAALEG

4H_GCN4 = target: 4H_GCN4
4H56-AA = target: T13, 4H56-AA; details: mean of both orientations
T13 chain: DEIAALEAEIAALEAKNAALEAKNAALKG

4H3001-AA = target: T14, 4H3001-AA; details: mean of both orientations
T14 chain: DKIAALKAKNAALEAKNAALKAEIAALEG

4H2330-AA = target: T15, 4H2330-AA; details: mean of both orientations
T15 chain: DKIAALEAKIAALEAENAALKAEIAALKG

4H406-AA = target: T16, 4H406-AA; details: mean of both orientations
T16 chain: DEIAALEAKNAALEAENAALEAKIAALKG

4H3438-AA = target: T17, 4H3438-AA; details: mean of both orientations
T17 chain: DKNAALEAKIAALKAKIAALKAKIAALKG

4H2253-AA = target: T18, 4H2253-AA; details: mean of both orientations
T18 chain: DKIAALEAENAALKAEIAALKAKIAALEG

4H1930-AA = target: T19, 4H1930-AA
T19 chain: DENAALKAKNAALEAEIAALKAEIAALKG

4H452-AA = target: T20, 4H452-AA; details: mean of both orientations
T20 chain: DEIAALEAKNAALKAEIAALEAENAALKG

4H2732-AA = target: T21, 4H2732-AA; details: mean of both orientations
T21 chain: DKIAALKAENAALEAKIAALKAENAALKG

4H3073-AA = target: T22, 4H3073-AA; details: mean of both orientations
T22 chain: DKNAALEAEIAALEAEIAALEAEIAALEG

4H347-AA = target: T23, 4H347-AA; details: mean of both orientations
T23 chain: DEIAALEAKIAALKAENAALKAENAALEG

Chain of 4H_GCN4 (chain, as listed by the source): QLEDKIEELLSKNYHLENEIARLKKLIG

For DENAALKAKNAALEAEIAALKAEIAALKG [4H1930-AA], which interaction score (4H2466-AA) is on record?
The interaction score was -1.3.

What about the interaction score (4H_APH) of the same binder?
Its interaction score is -1.06.

What about the interaction score (4H2592-AA) of the same binder?
The interaction score was -1.46.

And the interaction score (4H2124-AA)?
Its interaction score is -1.14.

And the interaction score (4H2931-AA)?
The interaction score was -1.91.

And the interaction score (4H249-AA)?
The interaction score was -1.82.

What about the interaction score (4H2512-AA) of the same binder?
The interaction score was -3.66.

What about the interaction score (4H2165-AA) of the same binder?
Its interaction score is -1.35.

And the interaction score (4H2774-AA)?
The interaction score was -1.57.

And the interaction score (GCN2_T)?
Its interaction score is -1.22.

What about the interaction score (4H2343-AA) of the same binder?
Its interaction score is -1.34.

What about the interaction score (4H_BCR) of the same binder?
The interaction score was -1.93.

And the interaction score (4H3015-AA)?
The interaction score was -1.72.

What about the interaction score (4H_GCN4) of the same binder?
Its interaction score is -1.23.

And the interaction score (4H56-AA)?
Its interaction score is -2.31.

And the interaction score (4H3001-AA)?
The interaction score was -1.62.

And the interaction score (4H2330-AA)?
The interaction score was -1.7.

What about the interaction score (4H406-AA) of the same binder?
Its interaction score is -1.92.

What about the interaction score (4H3438-AA) of the same binder?
Its interaction score is -1.3.

And the interaction score (4H2253-AA)?
The interaction score was -1.35.

And the interaction score (4H1930-AA)?
Its interaction score is 1.78.

And the interaction score (4H452-AA)?
The interaction score was -1.51.

And the interaction score (4H2732-AA)?
Its interaction score is -1.87.

And the interaction score (4H3073-AA)?
The interaction score was -0.77.

What about the interaction score (4H347-AA) of the same binder?
The interaction score was -1.32.

— PMC10397247
